Data published in patent US20250250358A1.

B1: Matuzumab Fab (Fab, INN chains, looked up, V domains shown)
VH: QVQLVQSGAEVKKPGASVKVSCKASGYTFTSHWMHWVRQAPGQGLEWIGEFNPSNGRTNYNEKFKSKATMTVDTSTNTAYMELSSLRSEDTAVYYCASRDYDYDGRYFDYWGQGTLVTVSS
VL: DIQMTQSPSSLSASVGDRVTITCSASSSVTYMYWYQQKPGKAPKLLIYDTSNLASGVPSRFSGSGSGTDYTFTISSLQPEDIATYYCQQWSSHIFTFGQGTKVEIK
modifications: Fab

Legend:
PD-L1 on cells [1] = target: PD-L1 on cells (UniProt Q9NZQ7); assay: flow cytometry, T24 R-WT cells incubated first with Atezolizumab Fab (50 nM); Isotype Control-647 gives 480 [Cont.]
Sequence of UniProt Q9NZQ7 (Q9NZQ7 19-290 limits assumed): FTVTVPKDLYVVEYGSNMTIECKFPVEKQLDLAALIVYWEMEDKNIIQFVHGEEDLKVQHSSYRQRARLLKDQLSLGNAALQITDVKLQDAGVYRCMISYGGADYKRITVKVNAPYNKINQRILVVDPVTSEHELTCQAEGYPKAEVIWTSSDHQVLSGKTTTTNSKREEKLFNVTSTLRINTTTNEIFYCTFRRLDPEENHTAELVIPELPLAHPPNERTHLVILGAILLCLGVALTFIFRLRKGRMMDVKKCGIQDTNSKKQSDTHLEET

EGFR = EGFR (UniProt P00533); assay: Fab KD, method not stated
PD-L1 on cells [2] = target: PD-L1 on cells (UniProt Q9NZQ7); assay: flow cytometry, T24 R-WT cells incubated first with Atezolizumab Fab (50 nM); negative control [Cont.]

Row | Molecule | Kd (EGFR) [nM] | also measured
1 | PD-L1 (D8T4X)-647 antibody | – | Median (APC) (PD-L1 on cells [1]): 8120
2 | Necitumumab Fab | 6.1 | –
3 | Isotype Control-647 (antibody) | – | Median (APC) (PD-L1 on cells [2]): 480
4 | B1 | 113 | –
